{"source": "the DeepSol protein solubility set"}
{"experiment": "soluble on expression in E. coli; label from the status in PepcDB or PDB records"}
{"sequence": "MSDVTGDLAAVSEAKGGSDAARISEVKAWLTSQFEAVGKEVPNFEYTHRSITHLYNLATASQAKSQAATIVANDFRLKASEYRAQAARIREILESAGMSQESLPSNVVSSAQVLANVANLLNIRDTELSRILAQLEDDVVPCESQMENWKTNLEVMAVKEEQYIQQYKKYEMLLNRVGYTPKISHRELVEMAEHRKELDKMTKPVLDTLRSYQDLPPDKALAALAIEDKKRQFTAAEKYLEEVLQSALETNDE", "soluble on expression in E. coli": "soluble"}
{"sequence": "MNLKQISAIIIVKNAKQTLLECLNSLKDFDEIILLNNESSDNTLNIANEFKKDFANLHIYHSAFIGFGALKNLALSYAKNDWILSIDADEVLENECIKELKNLELQEDNIIALSRKNLYKGEWIKACGWWPDYVWRIFNKNFTRFNDNLVHESLVLPSNAKKIYLKNGLRHYAFRDISHLIDKMQYYSSLWAKQNIHKKSGVLKANLRAFWTFFRNYFLKNGFLYGYKGFIISVCNALGTFFKYMKLYELQKQKPKTCALIITTYNQKERLKLVLDSVKNLAFLPNEVLIADDGSKEDTARLIEEYQKDFPCPLKHIWQEDEGFRAAKSRNNAIKASKSEYIILIDGDMILEKDFVKNHLEFAKRKVILQGSRVILNKNESEEILKNNNYSLAFNKKGFKNQRSIFLAKCVYKFSKLTKKFFKKSQLVKGSKTCNMSFYKSDFEAIEGFNEKFIGWGREDSEFVARFLFNDGVFKRLKFNALAYHIYHEENSKNMLEINHQIYLETIKNEKTTWRLEHHHHHH", "soluble on expression in E. coli": "not soluble"}
{"sequence": "MRILTLGLDGSGEFAFQSHAHTDHFANGRLIFATRPTIFLSHLRNSRYYIPVDFGKKFYIGDFKAKLYPSGHILGSSGIKIWLDEGTLYYTGDVKVKKLRTVERAKLPKADFLIIESTFGLPRFTFPDPRESEKVIIGIVEDLIDRGKVPTFMANPYGKAQEIIKILNVHGYSVSVDREIAKVSKFYMKFGVRLKFEKEGEVKVSSSKGISVSGFGRIKLSNHADFWELLEIVERVNPEKVFTVYGHAEAFAKILNGLGYEAKSIRRNQKLEVWLEHHHHHH", "soluble on expression in E. coli": "not soluble"}
{"sequence": "MSLSSAPDIILHRGLFTTLDRSNPAASAVAIADGRFVAVGHDHDVMKLAGPSTKIVDLRGRRVLPGLIDNHLHIIRGGLNFNMELRWDGVRSLATAMDMLKRQVAVTPPPQWVRVVGGFTEHQFAEKRLPTIDELNAVAPDTPVFLLHLYDRAILNGAALRAVGYAKDTPEPPGGEIMRDTKGNPTGLLLAKPNANILYATLAKGPKLPFDYQVNSTRHFMRELNRLGVTGAIDAGGGFQNYPDDYAVIQKLSDEGLLTIRLAYNLFTQKPKGEKADFLNWTKTSKYKQGDDYFRHNGAGEMLVFSAADFEDFRVARPDMPAEMEGELEEVVRVLVQNKWPWRLHATYDETISRALDVFERVNQDIPLEGLHWFFDHAETISDQSIDRIAALGGGIAVQHRMAYQGEYFVERYGAGAAEATPPVKKIIDKGVKVSAGTDATRVASYNPWVSLSWLVTGRTVGGLRITPQRNCLDRETALRMWTENVTWFSNEEGNKGRIQVGQLADLVVPDRDYFSCSEAEIADTTSLLTMVGGRIVYGAGDFSKLESVTPPPAMPDWSPVRRFGGYAAWADDTAKTKDTSLAMKAMQMCGCANSCGVHGHDHAAAWSSRLPVSDLRSFWGALGCACWAVEGHHHHHH", "soluble on expression in E. coli": "not soluble"}
{"sequence": "DQEVRLENRITFQLELVGLERVVRISAKPTKRLQEALQPILAKHGLSLDQVVLHRPGEKQPMDLENPVSSVASQTLVLDTPPDAKMSEARS", "soluble on expression in E. coli": "soluble"}
{"sequence": "HMVHITLDPDTANPWLILSEDRRQVRLGDTQQSIPGNEERFDSYPMVLGAQHFHSGKHYWEVDVTGKEAWDLGVCRDSVRRKGHFLLSSKSGFWTIWLWNKQKYEAGTYPQTPLHLQVPPCQVGIFLDYEAGMVSFYNITDHGSLIYSFSECAFTGPLRPFFSPGFNDGGKNTAPLTLCPL", "soluble on expression in E. coli": "soluble"}
{"sequence": "NIYDVAHDLDKGIRETPEFISLQDAYREVNENADAKAKFERFRDVQVTIQEKQMTGQEIDDETVNVAQQVAQEVQENELIVKLMEKEQAMSTIINDLNRIIMTPLQDLYNVA", "soluble on expression in E. coli": "not soluble"}
{"sequence": "MRKTLNVVVNGERTEIVTYKGTVQGALHDNGITLAPKDKVTPSLESKISKNETITINKAVNVKVKTEDGEKEIVSAEDNVEDMLKSEGISFDDDDKILPDKKESLKDGMNVEVVKVDVKKVTEVHPIEFTTEVKKDESKPQTYTEVLNDGQDGEKKVTRELVYENGKEVSNNVIQELVVKEPVNKEVVKGTKETQTLSRGGESINFKKKLSVKSTAYNHPLGSAEAYTASGMHVLRDPNGYSTIAVDPSVIPLGTKLYVEGYGYAIAADTGGAIKGNRVDLFFNTEAEASNWGVRNLDVYILNLEHHHHHH", "soluble on expression in E. coli": "soluble"}
{"sequence": "MIKFYQYKNCTTCKKAAKFLDEYGVSYEPIDIVQHTPTINEFKTIIANTGVEINKLFNTHGAKYRELDLKNKLQTLSDDEKLELLSSDGMLVKRPLAVMGDKITLGFKEDQYKETW", "soluble on expression in E. coli": "soluble"}
{"sequence": "MGSDKIHHHHHHMTPSTPTLATRWEPLPPRVVAELLGPSSARWWLSGGVALDHWLGTNTREHDNIDVSTTIADLPQVVQDLPAPFSAWAPSGDGVVPWAEADMDADLQPIRIHDDATGAWVMQVDVEDGTDSLWVYRRDPRLQLPWDRAVIDVDGIPTGAPEVQLVWKALRPRPEDDADKDAVLPELSNEARAWWEHAILTIHPHSSWSIHVRTPFAPGKASWNRTRR", "soluble on expression in E. coli": "not soluble"}
{"sequence": "MKKRYKNPEKSGSCGNFIQAIKMTDKVQPLESLSKKPEEPKIVVNLRRIKRKIMVMSGKGGVGKSTVAANLAVGLALRGHRVGLLDCDIHGPTVPTIFGLESARPGVSEEGILPIEVLPNLSVMSIGFLLENKDSPIIWRGPAKMGAIKQFLEEVFWGALDFLIIDLPPGTGDEPLSVAQLIPNCDGSVLVTTPQDVALISVRKSITFSEKLNVPIIGLVDNMHGLICPHCGKPIEVFGSGGVEKASKDFNIPILARLPIEPGVAEMEDRGTVVQDQLKHGTEWQKNFDNVVDAVEKILEKELEHHHHHH", "soluble on expression in E. coli": "soluble"}
{"sequence": "MNTLISRQLGLLLHAHECVRRDIKIREAAEKNEPAPHAMCKIQDCVIMKEVLKHMTSCKEGPKCNSVHCASSRTILSHWKKCFNEECPVCKPIIEQRTAPPQDTTPAEPKKPEHDQIWHLEVPKTYRSELIEKIYKGIMSNVKPGTLSEAQMDTWKEYSRSAELQIFDTAQKLEAYYHMAREKVCRYQEGFPRRQKTEEKDESDGSEKEDEADDRLEGTSTDYQGS", "soluble on expression in E. coli": "not soluble"}
{"sequence": "MGSDKIHHHHHHMLQVTDVSLRFGDRKLFEDVNIKFTEGNCYGLIGANGAGKSTFLKILSGELDSQTGHVSLGKNERLAVLKQDHYAYEDERVLDVVIKGHERLYEVMKEKDEIYMKPDFSDEDGIRAAELEGEFAEMNGWNAEADAANLLSGLGIDPTLHDKKMAELENNQKIKVLLAQSLFGEPDVLLLDEPTNGLDIPAISWLEDFLINFDNTVIVVSHDRHFLNNVCTHIADLDFGKIKVYVGNYDFWYQSSQLAQKMAQEQNKKKEEKMKELQDFIARFSANASKSKQATSRKKQLEKIELDDIQPSSRRYPFVKFTPEREIGNDLLIVQNLSKTIDGEKVLDNVSFTMNPNDKAILIGDSEIAKTTLLKILAGEMEPDEGSFKWGVTTSLSYFPKDNSEFFEGVNMNLVDWLRQYAPEDEQTETFLRGFLGRMLFSGEEVKKKASVLSGGEKVRCMLSKMMLSSANVLLLDEPTNHLDLESITAVNDGLKSFKGSIIFTSYDFEFINTIANRVIDLNKQGGVSKEIPYEEYLQEIGVLK", "soluble on expression in E. coli": "not soluble"}
{"sequence": "MKKPIILRKRYIPDEVIDISGDELVFRSEDLLITKWNPIRKRPDISGGISFTFLKEGYKASKFFGPSGEFKYWYCDIIKVLYDEDEDKYTLVDLLLDVKIMPDGRVEVLDADELAEALKNNIISKEEACMCLSILDKILKMAYSGKFPPEICLKDY", "soluble on expression in E. coli": "soluble"}
{"sequence": "MDIGLEVENIPSVNITSLKEAPIHISSKIQPHGILLVLAEPDLKILQVTNNTLNVFGRSAEDMVQKRLVDLLDAYQLDRIKSGLSEQNLEFINPTKILVRNKGIA", "soluble on expression in E. coli": "not soluble"}
{"sequence": "MIGYLFGNRVLVDDKELPLIEAYYLLDKGELEVYEDDKKLSKEEFLKKCLTYDERFLIRYKAYKELRDKGYTLGTALKFGADFRVYDIGVIPKKGKRSEREHSKWVLYPVSKDETFDFYEFASKNRVAHSTRKKMLMGIVSDKIEFIEVSWKKP", "soluble on expression in E. coli": "soluble"}
{"sequence": "MSLKKIMEYLQHYINQYPHRLALVFEDRHLTYGELSKEIYQASMRYKEVKLNEKVGLMDDHPVNNIINYFAVHQRGGIPCIFNHQWSNERIHQLVKSYDIQWLIKDNHLTLNHDDSIYNDEVIPRNVIHIGFTSGTTGLPKAFYRNEHSWIVSFKENEKLLQHCEETIVAPGPLSHSLSLYACIYALSTGKTFIGQKNFNPLSLMRLINQLNKATAIFVVPTMVQQLISTQRHCSSIKSILSSGAKLTLQQFQQISTLYPQANLIEFFGTSEASFISYNFNQSSPAHSVGKLFPHVETRLLNQDDDAVGLLAVRSEMVFSGYVGQSNQEGSWIKTGDFAYIKNQHLFLVGRESDRIIVGGINVYPTAIESLIMDIEGIDEALVIGIPHAKFGEIAILLYSGKVQLNYRQIKSFLMKQLSRQEVPSKLKKIDHMIYTESGKIARKEMKNKFINGEGHHHHHH", "soluble on expression in E. coli": "not soluble"}
{"sequence": "MSLKRKIETFLAKWKKSEDRKPLVIKGIRQCGKTYIVQKFAKENYESVVYMNFILEPDKKSAFTGNIDVDTIILNLSALIQGSRFINGKTCIILDEIQECKEARTALKSFHIDGRFDVIATGSLLGVKGYDKSKKKKEEEEGQDSVPVGYETVIDMYPLDFEEFLWANGISDMVIDSVKSCFENESTVPDGIHKAMMELLYRYVIVGGLPEVVNCFLETKNIELIYKVQRNLIAEYEEDMVKYADDPDKPRIRECFESIPKQLAKENKKFQYSVVKKGGRASQYIGSIQWLEDAGIVRRCYNTQITELPLEGNSIKGSFKVYTTDIGILMAMLDYGTQADILKGNLLGYKGAIFENLMADFLCKSGQKLYYFHKDSGLELDFLVRFKGECVILEVKAKTGKAKSMTTVLKNKDVYYVNNAIKLGQYNVGCEGDILTIPLYMGFLVEDKLADVIIPDVDVSLLTTIEGHHHHHH", "soluble on expression in E. coli": "soluble"}
{"sequence": "MAVSLFKQLQIVWDYHLVNQEIRKSDAIFVLCSYDLRVAEHAAQLYLDGYAPLLIFSGAQGRATEGLFTLSEAETFANVAKDMGVPSSAIIVETKATNTGENIFFTQALLKERNISVSSLILVQKPYMERRLLATFLKNWNDIEFCISSPNISFINYPTDEITFDHIASIILGELHRLKVYPTLGYQEAQEIPDEVWQAFENLTQLGFDEYLLTNDNLEHHHHHH", "soluble on expression in E. coli": "not soluble"}
{"sequence": "MSLTNNSETFNVLHASDFHIQLDYKLGAEGNCTLVPCGTSSSYSKDAPGKTYNFTDYYKSFNSDVSGNDISFYPDSHYDENAKFSKGDYYDFPQYFGWSFNKAPATSFGAYLSDAPYLLVNNSIVEMKKLHQEKNFESIIFTGDSFSHNGELANPDELKFSEAAIFNLINHYLNGVQVFPALGNHDTMFRYAEVAPRIYVSNASYYWNEDYVTDLWVNNGWFDKKDADAIKTHYTGYSFTTKRGLKVIGMNSNFYYGDNLWSYGETTTKPDKFGIWKFLIDELVDSESHGQRVWIMAHIPSNNYDVLPIQSHIFAAIVKRFSPYTIANLFFGHTHRTQYSVYYSTNDTSKIEDALTVSWVNPSVTPYTNFNPGFRYYEVENESFNIRNSFSYYFDLNGTEGHHHHHH", "soluble on expression in E. coli": "soluble"}
{"sequence": "GALGVVDEVHAGKEIGLQIYSLSQELYKGDVAANLRKVKDMGYSKLELAGYGKGAIGGVPMMDFKKMAEDAGLKIISSHVNPVDTSISDPFKAMIFKYSKEVTPKIMEYWKATAADHAKLGCKYLIQPMMPTITTHDEAKLVCDIFNQASDVIKAEGIATGFGYHNHNMEFNRVATKEQQEKVKGNPFAAFMKVGDQIYDLMLKDTDPSKVYFEMDVYWTVMGQNDPVEYMQKHPDRIKVLHIKDRAVFGQSGMMNFEMIFKQMYANGIKDYFVELEQMPDGRTQFAGVKDCADYLIKAPFVK", "soluble on expression in E. coli": "soluble"}
